In patent US20110091971A1, “Differentiation of Pluripotent Stem Cells” (priority 2008, published 2011):

How the values were obtained:
[1] = system: Human Embryonic Stem Cells (H1 hESC line); test: FACS analysis of CXCR4 at conclusion of first step of step-wise differentiation (Example 12); type: cell-based; conditions: 100 ng/ml peptide, end of first step (three days), FIG. 23A, 23B
Description: (§1) Preparation of Cells for Assay: Stock Cultures of Human Embryonic Stem Cells (H1 hESC line) were maintained in an undifferentiated, pluripotent state on growth factor-reduced MATRIGEL™-coated dishes in MEF conditioned medium supplemented with bFGF (PeproTech; Cat #100-18B) with passage on average every, four days. Passage was performed by exposing cell cultures to a solution of 1 mg/ml collagenase (Invitrogen, Cat #17104-019) for five to seven minutes at 37° C. followed by rinsing the monolayer with MEF conditioned medium and gentle scraping to recover cell clusters. Clusters were centrifuged at low speed to collect a cell pellet and remove residual collagenase. Cell clusters were split at a 1:3 or 1:4 ratio for routine maintenance culture or a 1:1 ratio for immediate assay. All human ES cell lines were maintained at passage numbers less than 50 and routinely evaluated for normal karyotypic phenotype and for absence of mycoplasma contamination.
(§2) Cell clusters were evenly resuspended in MEF conditioned medium supplemented with 8 ng/ml bFGF and seeded onto growth factor-reduced MATRIGEL™-coated 24-well, black wall culture plates (Arctic White; Cat #AWLS-303012) in volumes of 0.5 ml/well. Daily feeding was conducted by aspirating spent culture medium from each well and replacing with an equal volume of fresh medium. Plates were maintained at 37° C., 5% CO2 throughout the duration of assay.
(§3) Assay: The assay was initiated by aspirating culture medium from each well and adding back an aliquot (0.5 ml) of test medium. Test conditions for the first step of differentiation were conducted over a three-day period, feeding daily by aspirating and replacing the medium from each well with fresh test medium. Concentrated supernatants of the ACTN peptides were evaluated for protein concentration using a DuoSet ELISA kit for human activin A (R&D Systems; Cat #DY338), as previously described in Example 11. On the first day of assay, ACTN peptides were diluted to a final concentration of 100 ng/ml in RPMI 1640 medium (Invitrogen; Cat #: 22400) with 2% Albumin Bovine Fraction V, Fatty Acid Free (FAF BSA) (MP Biomedicals, Inc; Cat #152401), 8 ng/ml bFGF, and 20 ng/ml Wnt3a (R&D Systems; Cat #1324-WN/CF) and then added to the assay wells. On the second and third day of assay, ACTN peptides were diluted into RPMI 1640 medium supplemented with 2% fatty acid free BSA and 8 ng/ml bFGF, without any Wnt3a and then added to the assay wells. A positive control sample included a commercial source of activin A (PeproTech; Cat #12 0-14) diluted in culture medium with growth factors as indicated. At the conclusion of three days culture, cells from some wells were harvested for analysis by flow cytometry to evaluate levels of CXCR4, a marker of definitive endoderm formation. […]

[2] = system: Human Embryonic Stem Cells (H1 hESC line); test: High content analysis of cell number and SOX17 expression at end of first step of differentiation (Example 12); type: cell-based; conditions: 100 ng/ml peptide, FIG. 23C-F
Description: as §1, §2, §3

B1: ACTN1: wild type Activin A mature protein (SwissProt/UniProt: P08476), SEQ ID 2, expressed from applicant's construct (protein)
chain: GLECDGKVNICCKKQFFVSFKDIGWNDWIIAPSGYHANYCEGECPSHIAGTSGSSLSFHSTVINHYRMRGHSPFANLKSCCVPTKLRPMSMLYYDDGQNIIKKDIQNMIVEECGCS
CXCR4 expression (FACS) [1]: equivalent and robust CXCR4 expression | cell number and SOX17 expression (high content analysis) [2]: equivalent results

B2: ACTN4: activin A variant peptide, SEQ ID 5 (protein)
chain: GLECDGKVNLCCKKQLFVSFKDIGWNDWIIAPSGYHANHCSGLCPSHIAGTSGSSLSFHSTVINHYRMRGHSPFSDMGACCVPTKLRPMSMLYYDDGQNIIKKDIQNMIVEECGCS
CXCR4 expression (FACS) [1]: equivalent or comparable | cell number and SOX17 expression (high content analysis) [2]: comparable results

B3: ACTN48: activin A variant peptide, SEQ ID 49 (protein)
chain: GLECDGKVNLCCKKQNFVSFKDIGWNDWIIAPSGYHANECSGLCPSHIAGTSGSSLSFHSTVINHYRMRGHSPFANMGACCIPTKLRPMSMLYYDDGQNIIKKDIQNMIVEECGCS
CXCR4 expression (FACS) [1]: equivalent or comparable | cell number and SOX17 expression (high content analysis) [2]: comparable results
